The values below are quoted from earlier work in patent US20130251731A1, “Tau Acetylation in the Pathogenesis of Alzheimers Disease and Other Related Tauopathies” (THE TRUSTEES OF THE UNIVERSITY OF PENNSYLVANIA, priority 2012, published 2013).

The term Km denotes the concentration of substrate that gives half-maximal velocity.

This data set relates to histones and microtubules.

Like-named read-outs stand apart in the source and are kept apart here.

B1: αTAT-1: cytoplasmic α-tubulin acetyltransferase (protein, UniProt Q5SQI0 1-421, looked up)
Alpha-tubulin …: MEFPFDVDALFPERITVLDQHLRPPARRPGTTTPARVDLQQQIMTIIDELGKASAKAQNLSAPITSASRMQSNRHVVYILKDSSARPAGKGAIIGFIKVGYKKLFVLDDREAHNEVEPLCILDFYIHESVQRHGHGRELFQYMLQKERVEPHQLAIDRPSQKLLKFLNKHYNLETTVPQVNNFVIFEGFFAHQHRPPAPSLRATRHSRAAAVDPTPAAPARKLPPKRAEGDIKPYSSSDREFLKVAVEPPWPLNRAPRRATPPAHPPPRSSSLGNSPERGPLRPFVPEQELLRSLRLCPPHPTARLLLAADPGGSPAQRRRTRGTPPGLVAQSCCYSRHGGVNSSSPNTGNQDSKQGEQETKNRSASEEQALSQDGSGEKPMHTAPPQAPAPPAQSWTVGGDILNARFIRNLQERRSTRPW
As for B1, the Kcat by setting is: (Shida et al., 2010) 0.000617 s⁻¹; (substrate as listed (H4-21, H3p19, H3, microtubules)) 0.000617 s⁻¹. The Km (substrate as listed (H4-21, H3p19, H3, microtubules), read-out: Km [protein]) is 1.6 µM.
